Among the data in patent publication US20260055182A1 are Kd values, retold here.

The target of assay [1] is human C1q purified protein (human) (UniProt P02745). Briefly: SPR (Biacore T200), C1q reversibly immobilised, antibody as analyte.
Assay [2] addresses human FcRn / FCGRT&B2M (human) (UniProt P55899). Briefly: SPR (Biacore T200), pH 6.0, FcRn reversibly immobilised, antibody as analyte. In general terms: In SPR one partner is held on a chip, and binding of the other changes the refractive index at the surface.
For assay [3], the target named is human FcyRIIIA/CD16a (V176) (human) (UniProt P08637). The experiment in a line: SPR (Biacore 8K+), receptor reversibly immobilised, antibody as analyte.
Chain of human FcyRIIIA/CD16a (V176) (human) (P08637 17-208 F176V limits assumed): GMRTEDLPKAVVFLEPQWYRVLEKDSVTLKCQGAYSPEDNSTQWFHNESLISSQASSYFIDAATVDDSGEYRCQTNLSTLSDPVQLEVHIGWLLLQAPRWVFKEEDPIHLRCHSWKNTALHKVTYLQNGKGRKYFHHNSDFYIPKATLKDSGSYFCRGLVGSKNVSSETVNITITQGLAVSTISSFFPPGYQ
The target of assay [4] is human FcyRIIA/CD32a (H167) (human) (UniProt P12318). The description is as above.
Chain of human FcyRIIA/CD32a (H167) (human) (P12318 36-218): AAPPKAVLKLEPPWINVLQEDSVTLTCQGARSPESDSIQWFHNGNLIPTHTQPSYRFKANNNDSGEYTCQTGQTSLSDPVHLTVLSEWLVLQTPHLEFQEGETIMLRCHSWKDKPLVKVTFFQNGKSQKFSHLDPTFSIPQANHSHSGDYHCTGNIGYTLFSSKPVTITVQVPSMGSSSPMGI
Another assay has as its target human FcyRI/CD64 (human) (UniProt P12314). Described as above.

pKd: −log10 of the molar value.

By pKd is commonly meant −log10 of the Kd, conventionally taken in molar units.

Chain of human FcRn / FCGRT&B2M (human) (P55899 24-297 limits assumed, chain 1 of 2): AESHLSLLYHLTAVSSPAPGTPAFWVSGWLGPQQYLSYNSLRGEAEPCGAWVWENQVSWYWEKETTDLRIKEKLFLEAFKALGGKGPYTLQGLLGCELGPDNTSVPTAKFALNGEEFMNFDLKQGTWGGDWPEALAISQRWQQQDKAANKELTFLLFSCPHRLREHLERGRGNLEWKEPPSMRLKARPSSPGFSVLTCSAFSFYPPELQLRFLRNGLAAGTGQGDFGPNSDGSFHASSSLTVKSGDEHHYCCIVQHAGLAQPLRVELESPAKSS
Chain of human FcRn / FCGRT&B2M (human) (P61769 21-119 limits assumed, chain 2 of 2, further chain): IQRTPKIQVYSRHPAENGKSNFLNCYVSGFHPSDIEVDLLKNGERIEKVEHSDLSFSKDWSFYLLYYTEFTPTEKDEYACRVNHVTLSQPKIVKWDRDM
Chain of human FcyRI/CD64 (human) (P12314 16-288 limits assumed): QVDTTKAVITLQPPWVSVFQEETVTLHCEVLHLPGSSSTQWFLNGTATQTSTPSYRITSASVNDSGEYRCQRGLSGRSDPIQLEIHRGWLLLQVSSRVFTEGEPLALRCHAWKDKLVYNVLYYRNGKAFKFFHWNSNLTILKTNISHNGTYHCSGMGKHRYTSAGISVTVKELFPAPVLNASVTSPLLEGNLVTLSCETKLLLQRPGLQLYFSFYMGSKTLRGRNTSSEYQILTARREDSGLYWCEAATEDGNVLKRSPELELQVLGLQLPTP
Chain of human C1q purified protein (human) (P02745 23-245, chain 1 of 3): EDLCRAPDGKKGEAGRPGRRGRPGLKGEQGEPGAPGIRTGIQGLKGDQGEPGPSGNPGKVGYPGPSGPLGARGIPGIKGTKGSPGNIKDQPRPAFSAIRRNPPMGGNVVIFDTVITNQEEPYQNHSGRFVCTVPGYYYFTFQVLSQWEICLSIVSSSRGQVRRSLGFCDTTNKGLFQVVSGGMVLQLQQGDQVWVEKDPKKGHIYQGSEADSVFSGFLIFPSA
Chain of human C1q purified protein (human) (P02746 28-253, chain 2 of 3, further chain): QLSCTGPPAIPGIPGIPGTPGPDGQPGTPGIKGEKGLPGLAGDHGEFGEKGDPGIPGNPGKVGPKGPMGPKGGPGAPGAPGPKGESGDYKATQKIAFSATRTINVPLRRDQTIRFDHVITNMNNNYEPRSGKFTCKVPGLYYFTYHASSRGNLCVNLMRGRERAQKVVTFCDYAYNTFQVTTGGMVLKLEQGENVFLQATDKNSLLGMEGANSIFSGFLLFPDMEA
Chain of human C1q purified protein (human) (P02747 29-245, chain 3 of 3, further chain): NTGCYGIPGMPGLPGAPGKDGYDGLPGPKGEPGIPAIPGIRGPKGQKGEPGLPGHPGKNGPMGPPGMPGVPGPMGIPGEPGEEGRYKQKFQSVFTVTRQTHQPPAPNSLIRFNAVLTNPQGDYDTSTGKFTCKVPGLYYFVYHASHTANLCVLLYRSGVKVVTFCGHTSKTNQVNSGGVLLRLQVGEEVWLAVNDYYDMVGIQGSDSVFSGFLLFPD

As for Mabthera (Rituximab) (antibody), the pKd in assay [1] was 6.89; in assay [2] it was 6.42; in assay [3] it was 7.24; in assay [4], 6.49; with human FcyRI/CD64 (human), 10.39.
